Test results taken from the supplement of paper PMC10567573.

B1: TPD52L1 (parent)
chain: ISKKFGDMSYSIRHSISMPAMRNS

Variants of: B1
Assay: protein stability index of a GFP-peptide fusion (GPS, HEK-293T) (PSI 1-6); higher = more stable
Details: c terminus: a fixed tail appended
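Further: lentivirally expressed fusions sorted by FACS into six bins by GFP to DsRed ratio, PSI derived from sequencing read proportions per bin multiplied by bin number.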

Variant | protein stability index
ISKKFGDMSYSIRHSISMGAMRNS [P19G] | 2.6
ISKKFGDMSYSIRHSISMHAMRNS [P19H] | 2.01
ISKKFGDMSYSIRHSISMFAMRNS [P19F] | 1.87
ISKKFGDMSYSIRHSISMPAMPNS [R22P] | 2.34
ISKKFGDMSYSIRHSISMPAMMNS [R22M] | 2.25
ISKKFGDMSYSIRHSISMPAMYNS [R22Y] | 1.88
ISKKFGDMSYSIRHSISMPAMDNS [R22D] | 2.52
ISKKFGDMSYSIRHSISMPAMHNS [R22H] | 2.56
ISKKFGDMSYSIRHSISMPAMVNS [R22V] | 1.8
ISKKFGDMSYSIRHSISMPAMSNS [R22S] | 2.13
ISKKFGDMSYSIRHSISMPLMRNS [A20L] | 1.93
ISKKFGDMSYSIRHSISMPFMRNS [A20F] | 2.2
ISKKFGDGSYSIRHSISMPAMRNS [M8G] | 2.31
ISKKFGDRSYSIRHSISMPAMRNS [M8R] | 2.53
ISKKFGDISYSIRHSISMPAMRNS [M8I] | 2.13
ISKKFGDFSYSIRHSISMPAMRNS [M8F] | 2.19
ISKKFGDKSYSIRHSISMPAMRNS [M8K] | 2.48
ISKKFGDSSYSIRHSISMPAMRNS [M8S] | 2.4
ISKKFGDTSYSIRHSISMPAMRNS [M8T] | 2.33
ISKQFGDMSYSIRHSISMPAMRNS [K4Q] | 2.09
ISKFFGDMSYSIRHSISMPAMRNS [K4F] | 1.58
ISKPFGDMSYSIRHSISMPAMRNS [K4P] | 2.48
ISKGFGDMSYSIRHSISMPAMRNS [K4G] | 2
ISKNFGDMSYSIRHSISMPAMRNS [K4N] | 2.13

Variant | protein stability index
ISKEFGDMSYSIRHSISMPAMRNS [K4E] | 2.33
ISKKFGDMSYSIRHWISMPAMRNS [S15W] | 2.22
ISKKFGDMSYSIRHVISMPAMRNS [S15V] | 1.32
ISKKFGDMSYSIRHGISMPAMRNS [S15G] | 2.38
ISKKFGDMSYSIRHSISVPAMRNS [M18V] | 1.83
ISKKFGDMSYSIRHSISWPAMRNS [M18W] | 1.7
ISKKFGDMSYSIRHSISHPAMRNS [M18H] | 2.6
ISKKFGDMSYSIRHSISEPAMRNS [M18E] | 2.74
ISKKFGDMSYSIRHSISSPAMRNS [M18S] | 2.05
ISKKFGDMSYSIRHSISCPAMRNS [M18C] | 2.21
ISKKFGDMSYSIRHSISAPAMRNS [M18A] | 2.64
ISKKIGDMSYSIRHSISMPAMRNS [F5I] | 2.37
ISKKLGDMSYSIRHSISMPAMRNS [F5L] | 1.78
ISKKHGDMSYSIRHSISMPAMRNS [F5H] | 2.72
ISKKMGDMSYSIRHSISMPAMRNS [F5M] | 2.29
ISKKFGDMVYSIRHSISMPAMRNS [S9V] | 2.03
ISKKFGDMFYSIRHSISMPAMRNS [S9F] | 2
ISKKFGDMMYSIRHSISMPAMRNS [S9M] | 1.51
ISKKFGDMWYSIRHSISMPAMRNS [S9W] | 2.69
ISKKFGDMCYSIRHSISMPAMRNS [S9C] | 1.88
ISKKFGDMDYSIRHSISMPAMRNS [S9D] | 2.36
ISKKFGDMQYSIRHSISMPAMRNS [S9Q] | 2.31
IEKKFGDMSYSIRHSISMPAMRNS [S2E] | 2.83
IMKKFGDMSYSIRHSISMPAMRNS [S2M] | 1.75

Variant | protein stability index
IFKKFGDMSYSIRHSISMPAMRNS [S2F] | 1.74
ITKKFGDMSYSIRHSISMPAMRNS [S2T] | 2.21
IQKKFGDMSYSIRHSISMPAMRNS [S2Q] | 2.37
ISKKFGDMSYSHRHSISMPAMRNS [I12H] | 2.6
ISKKFGDMSYSSRHSISMPAMRNS [I12S] | 2.41
ISKKFGDMSYSNRHSISMPAMRNS [I12N] | 3.1
ISKKFGDMSYSRRHSISMPAMRNS [I12R] | 2.86
ISKKFGDMSYSCRHSISMPAMRNS [I12C] | 1.54
ISKKFGDMSYSIRHSISMPATRNS [M21T] | 2.49
ISKKFGDMSYSIRHSISMPAWRNS [M21W] | 2.79
ISKKFGDMSYSIRHSISMPAKRNS [M21K] | 3.21
ISKKFGDMSYSIRHSISMPAVRNS [M21V] | 2.53
ISKKFGDMSYSIRHSISMPAMRSS [N23S] | 2.26
ISKKFGDMSYSIRHSISMPAMRGS [N23G] | 2.42
ISKKFGDMSYSIRHSISMPAMRQS [N23Q] | 2.29
ISKKFGDMSYSIRHSISMPAMRVS [N23V] | 1.84
ISKKFGDMSYSIRHSGSMPAMRNS [I16G] | 2.51
ISKKFGDMSYSIRHSLSMPAMRNS [I16L] | 2.46
ISKKFGDMSYSIRHSRSMPAMRNS [I16R] | 2.81
ISKKFGDMSYSIRHSQSMPAMRNS [I16Q] | 2.72
ISKKFGDMSYSIWHSISMPAMRNS [R13W] | 2.29
ISKKFGDMSYSICHSISMPAMRNS [R13C] | 1.78
ISKKFGDMSYSIVHSISMPAMRNS [R13V] | 2.6
ISKKFGFMSYSIRHSISMPAMRNS [D7F] | 1.7

Variant | protein stability index
ISKKFGIMSYSIRHSISMPAMRNS [D7I] | 3.23
ISKKFGPMSYSIRHSISMPAMRNS [D7P] | 2.14
ISKKFGYMSYSIRHSISMPAMRNS [D7Y] | 2.31
ISKKFGRMSYSIRHSISMPAMRNS [D7R] | 2.21
ISKKFGEMSYSIRHSISMPAMRNS [D7E] | 2.22
ISLKFGDMSYSIRHSISMPAMRNS [K3L] | 2.83
ISEKFGDMSYSIRHSISMPAMRNS [K3E] | 2.62
ISHKFGDMSYSIRHSISMPAMRNS [K3H] | 2.37
ISSKFGDMSYSIRHSISMPAMRNS [K3S] | 2.25
ISKKFIDMSYSIRHSISMPAMRNS [G6I] | 1.6
ISKKFDDMSYSIRHSISMPAMRNS [G6D] | 2.28
ISKKFFDMSYSIRHSISMPAMRNS [G6F] | 1.97
ISKKFVDMSYSIRHSISMPAMRNS [G6V] | 2.15
ISKKFGDMSYSIRHSINMPAMRNS [S17N] | 2.25
ISKKFGDMSYSIRHSIEMPAMRNS [S17E] | 2.1
ISKKFGDMSYSIRHSIDMPAMRNS [S17D] | 2.36
ISKKFGDMSYSIRHSISMPAMRND [S24D] | 2.61
ISKKFGDMSYSIRHSISMPAMRNA [S24A] | 2.63
ISKKFGDMSYSIRHSISMPAMRNV [S24V] | 2.24
ISKKFGDMSYSIRHSISMPAMRNG [S24G] | 2.13
ISKKFGDMSYSIRHSISMPAMRNT [S24T] | 2.74
ISKKFGDMSYSIRHSISMPAMRNR [S24R] | 2.67
